Target: T1, phosphorylated HGFR (pHGFR) (Homo sapiens, UniProt P08581)
T1 construct: The cDNA corresponding to residues 1051-1349 of the HGFR kinase catalytic domain (HGFRkd) was cloned into a pFastBac plasmid; added N-terminal methionine (start codon of the NcoI site) (N); made in house; host or cells: Sf9 insect cells, recombinant baculovirus; then autophosphorylated in vitro with MgATP
Experiment: Coupled enzymatic (PK/LDH) kinase assay, phospho-HGFR
Format: biochemical
Settings: coupled, enzymatic format; phosphorylation state of HGFR not stated; read-out: Km, Dephosphorylated α-casein
Description: A coupled enzymatic assay format was used to measure both HGFR and phospho-HGFR(PHGFR) activities. The kinase-catalyzed production of ADP from ATP that accompanies phosphate transfer to the random copolymer poly(Glu4Tyr) or peptide substrate was coupled to the oxidation of NADH through the activities of pyruvate kinase (PK) and lactate dehydrogenase (LDH). NADH conversion to NAD^+ was monitored by the decrease in absorbance at 340 nm (ε=6.22 cm^−1 mM^−1) using a Beckman DU650 spectrophotometer. A typical reaction solution contained 1 mM phosphoenolpyruvate, 0.24 mM NADH, 40 mM MgCl2, 5 mM DTT, poly(Glu4Tyr), ATP, 15 units/mL PK, 15 units/mL LDH in 100 mM HEPES, pH 7.5. […]
The kinetic consequences of the autophosphorylation were investigated. HGFR and pHGFR activities were evaluated in two distinct and complementing assay formats. […] NADH conversion to NAD^+ was monitored spectrophotometrically by the decrease in absorbance at 340 nm (ε=6.22 cm^−1 mM^−1). […]
Inhibition of HGFR and pHGFR were monitored in two distinct assay formats to insure valid results. The coupled, enzymatic format (CE) was a continuous assay that measured ADP production through the sequential action of two standard coupling enzymes (pyruvate kinase and lactate dehydrogenase). The radioactive assay format was a discontinuous assay that measured phospho-protein production directly. […]

T1 sequence (P08581 1051-1349): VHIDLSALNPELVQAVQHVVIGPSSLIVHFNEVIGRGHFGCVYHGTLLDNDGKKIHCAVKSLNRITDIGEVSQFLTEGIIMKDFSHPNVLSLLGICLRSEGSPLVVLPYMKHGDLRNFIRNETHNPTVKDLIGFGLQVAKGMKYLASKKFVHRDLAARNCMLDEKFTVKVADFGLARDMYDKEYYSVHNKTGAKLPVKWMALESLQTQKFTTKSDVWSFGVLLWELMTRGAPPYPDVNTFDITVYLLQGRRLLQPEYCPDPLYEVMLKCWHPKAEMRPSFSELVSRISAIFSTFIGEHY

B1: Dephosphorylated α-casein: phosphoacceptor protein substrate for HGFR (protein)
chain: RPKHPIKHQGLPQEVLNENLLRFFVAPFPEVFGKEKVNELSKDIGSESTEDQAMEDIKQMEAESISSSEEIVPNSVEQKHIQKEDVPSERYLGYLEQLLRLKKYKVPQLEIVPNSAEERLHSMKEGIHAQQKEPMIGVNQELAYFYPELFRQFYQLDAYPSGAWYYVPLGTQYTDAPSFSDIPNPIGSENSEKTTMPLW
For B1, the Km was 28.5 ± 3.5 µM.
